Test results reported in patent US20200270358A1 (BEIJING GEFUCURE BIOTECHNOLOGY, published 2020).

Molecular target: T1, CD20 antigen on the surface of Daudi and Raji B lymphoma cells (human, UniProt P11836 1-297)
T1 sequence (looked up): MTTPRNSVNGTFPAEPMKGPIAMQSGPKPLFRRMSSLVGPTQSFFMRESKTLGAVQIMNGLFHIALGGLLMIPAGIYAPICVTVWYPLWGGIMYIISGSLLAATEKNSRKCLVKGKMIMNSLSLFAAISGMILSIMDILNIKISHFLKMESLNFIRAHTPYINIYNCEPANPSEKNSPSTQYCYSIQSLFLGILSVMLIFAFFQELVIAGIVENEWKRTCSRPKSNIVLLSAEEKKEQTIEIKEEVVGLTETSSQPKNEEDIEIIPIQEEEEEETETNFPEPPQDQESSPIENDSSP
Experiment: cell-based or functional assay

B1: recombinant afucosylated anti-human CD20 monoclonal antibody prepared in Example 2 (expressed in the milk of a transgenic cow) (antibody, human IgG1, kappa)
heavy: not shown
light: QIVLSQSPAILSASPGEKVTMTCRASSSVSYIHWFQQKPGSSPKPWIYATSNLASGVPVRFSGSGSGTSYSLTISRVEAEDAATYYCQQWTSNPPTFGGGTKLEIKRTVAAPSVFIFPPSDEQLKSGTASVVCLLNNFYPREAKVQWKVDNALQSGNSQESVTEQDSKDSTYSLSSTLTLSKADYEKHKVYACEVTHQGLSSPVTKSFNRGEC
modifications: N-linked sugar chain at Asn-320, mainly afucosylated glycoform (80% to 100%), of which the G2 glycoform is 30% to 100%
EC50 (read off the curve): ADCC, percentage of cell lysis (LDH release), NK92/CD16a (158 V/V) effector cells, CD20-bearing B lymphoma target cells: ~0.5 ng/mL
